Three molecules from paper PMC7007383 (Cancer discovery, 2019) can be followed below.

In experiment [1] the target is recombinant RHOA wild type (human, UniProt P61586 1-193). As to the kind of experiment: other fluorescence titration.
In experiment [2] the target is recombinant RHOA Y42C (human, UniProt P61586 1-193, Y42C). Briefly: other fluorescence titration.
recombinant RHOA Y42C, sequence (P61586 whole entry Y42C): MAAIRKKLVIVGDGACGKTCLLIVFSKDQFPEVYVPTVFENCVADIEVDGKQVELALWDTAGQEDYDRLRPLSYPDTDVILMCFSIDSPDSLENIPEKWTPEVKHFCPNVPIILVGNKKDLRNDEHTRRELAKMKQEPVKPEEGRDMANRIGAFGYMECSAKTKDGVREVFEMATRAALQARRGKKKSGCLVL

recombinant RHOA wild type, sequence (P61586 whole entry): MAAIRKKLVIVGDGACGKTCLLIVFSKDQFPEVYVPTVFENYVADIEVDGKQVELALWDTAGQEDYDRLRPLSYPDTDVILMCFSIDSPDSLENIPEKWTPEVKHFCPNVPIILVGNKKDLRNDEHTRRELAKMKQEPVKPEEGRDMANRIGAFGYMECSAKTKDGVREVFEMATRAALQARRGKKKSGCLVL

B1: ROCK RHOA-GTP binding domain (RBD) (domain or fragment)
chain: TKDIEILRRENEELTEKMKKAEEEYKLEKEEEISNLKAAFEKNINTERTLKTQAVNKLAEIMNRKDF
On to B1, for which the Kd in experiment [1] turned out to be 380 ± 30 nM. For the same molecule, the “fold change of binding against RHOA WT” value in experiment [2] was determined as 12 fold.

B2: Rhotekin RHOA-GTP binding domain (RBD) (domain or fragment, UniProt Q8C6B2 17-98, looked up)
chain: ALEMEFKRGRFRLSFFSESPEDTELQRKLDHEIRMRDGACKLLAACSQREQALEATKSLLVCNSRILSYMGELQRRKEAQVL
For B2, the Kd in experiment [1] was found to be 500 ± 40 nM.

B3: mDia RHOA-GTP binding domain (RBD) (domain or fragment)
chain: LQDISDEQVLVLFEQMLVDMNLNEEKQQPLREKDIVIKREMVSQYLHTSKAGMNQKESSRSAMMYIQELRSGLRDMHLLSCLESLRVSLNNNPVSWVQTFGAEGLASLLDILKRLHDEKEETSGNYDSRNQHEIIRCLKAFMNNKFGIKTMLETEEGILLLVRAMDPAVPNMMIDAAKLLSALCILPQPEDMNERVLEAMTERAEMDEVERFQPLLDGLKSGTSIALKVGCLQLINALITPAEELDFRVHIRSELMRLGLHQVLQELREIENEDMKVQLCVFDEQGDEDFFDLKGRLDDIRMEMDDFGEVFQIILNTVKDSKAEPHFLSILQHLLLVRNDYEARPQYYKLIEECVSQIVLHKNGTD
As for B3, the Kd in experiment [1] stood at 460 ± 60 nM.
